Results as given in patent publication US20050204417A1 (WASHINGTON STATE UNIVERSITY RESEARCH FOUNDATION, published 2005).

B1: His-tagged AgGPPS2 truncated protein (SEQ ID NO:12) (enzyme)
chain: MFDFNKYMDSKAMTVNEALNKAIPLRYPQKIYESMRYSLLAGGKRVRPVLCIAACELVGGTEELAIPTACAIEMIHTMSLMHDDLPCIDNDDLRRGKPTNHKIFGEDTAVTAGNALHSYAFEHIAVSTSKTVGADRILRMVSELGRATGSEGVMGGQMVDIASEGDPSIDLQTLEWIHIHKTAMLLECSVVCGAIIGGASEIVIERARRYARCVGLLFQVVDDILDVTKSSDELGKTAGKDLISDKATYPKLMGLEKAKEFSDELLNRAKGELSCFDPVKAAPLLGLADYVAFRQNLEHHHHHH
notes: N-terminally truncated (leader removed) with C-terminal His6 tag, expressed in E. coli; homodimer by gel filtration
B2: His-tagged AgGPPS1 truncated protein (SEQ ID NO:16) (enzyme)
chain: MFDFKEYLHSKAISVNEALERAVPLRYPEKIHEAMRYSLLAGGKRIRPILTIAACELVGGSEELAMPTACAMEMIHTMSLIHDDLPSMDNDDLRRGKLTNHKVFGEGTAVLAGDALLSFAFEHIAVSTRKTVASHRVLRVVSELGKAIGSQGVAGGQVADITSEGDPSVGLETLEWIHIHKTAVLLECAVVSGAIIGGASENEIERTGRYARCVGLLFQVVDDILDVTRSSEELGKTAGKDLVSDKATYPKLMGLEKAKEFADELLDRAKEELSCFNPAKAAPLLGLADYIALRQNLEHHHHHH
notes: as for B1
B3: His-tagged AgGPPS3 truncated protein (SEQ ID NO:20) (enzyme)
chain: MFDFNKYMLSKAMAVTEALDKAIPHSYPQKIHESMRYSLLAGGKRVRPVLCIAACELVGGREELAMPTACAMEMIHTMSLIHDDLPCMDNDDLRRGKPTNHKVFGQDTALLAGDALHAFAFEHIVAFTSKSVGSDGILRAVTELARATGPQGIMGGQIVDIASERDAFVDLQTLEWIHIHKTAVLFECATVCGAIIGGASGDEIERIRRFARYLGLLFQVVDDILDVTKSSEDLGKTAGKDLVSDKATYPKLMGLEKAKGFSLELLNKAKEELSCFDPMKAAPLFGLADYMALRQNLEHHHHHH
notes: as for B1

Target: the molecule itself
Assay: gel filtration on calibrated Superdex 200; self-association of the subunit
Protocol: Molecular weight determination and kinetic evaluation. The molecular weight of GPP synthase was determined by gel filtration chromatography on a calibrated XK 16/70 column of Superdex 200 (Amersham Biosciences) as previously described (C. Burke and R. Croteau, J. Biol. Chem. 277:3141-3149, 2002). For kinetic evaluation, the standard prenyltransferase assay was performed (C. Burke and R. Croteau, J. Biol. Chem. 277:3141-3149, 2002) but the reaction was terminated after 4 min. to ensure linearity in the rate measurements. For preparative incubations, the reaction time was extended to 8 min., and all assays contained from 0.25 to 1.0 μg of purified protein.

Binding result, binds:
B1, B2, B3
